Fewer inactive variants are shown than the library holds.
B1: TPR 5TU (parent)
chain: GGAUCUUCUCGAUCUAACAAAAAAGACAAAUCUGCCACAAAGCUUGAGAGCAUCUUCGGAUGCAGAGGCGGCAGCCUUCGGUGGCGCGAUAGCGCCAACGUUCUCAACUAUGACACGCAAAACGCGUGCUCCGUUGAAUGGAGUUUAUCAUG

Variants of: B1
Experiment: polymerase ribozyme fitness, log enrichment relative to wild type (log ratio); higher = more active; in vitro selection for triplet polymerase activity
How it was run: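 PCR was used to build mutant libraries for each subunit of a heterodimeric triplet polymerase ribozyme, which were then transcribed. A single in vitro selection round, in triplicate, used a frozen incubation at −7 °C and recovered extended constructs by gel excision, streptavidin beads and RT-PCR. Fitness is the logarithm of genotype enrichment relative to wild-type enrichment, averaged over replicates with inverse-variance weights. The logarithm is base 2, and after Illumina sequencing only genotypes with ≥10 input reads and ≥1 read per output were kept.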

Row | Variant | polymerase ribozyme fitness (log ratio)
1 | U6A G80C G94A | ≤ -4.2
2 | U6A C57G C105U | 0.464
3 | C5G A40C C69A G70U A89C | ≤ -4.2
4 | C5U C51A C54G G59C G84A C116G | -3.05
5 | U6C C38A G59U C69A | -2.2
6 | C5U C27G C95U C96U G141C | ≤ -4.2
7 | U6C A60G G117U | -1.75
8 | U6C A49G G59A G92A U111A | ≤ -4.2
9 | U6A C87A A137C | ≤ -4.2
10 | C5U U6G C79G | ≤ -4.2
11 | C5U G84U U148G | ≤ -4.2
12 | C5U C54U U82A C95G A150U | -1.62
13 | U6A A29G G74A C103G A107G A122U | ≤ -4.2
14 | C5G C18U A21C G86A C105A C123G | ≤ -4.2
15 | U6C A19C A26G C85G C108A | ≤ -4.2
16 | C5U U7C A21U G86A C131A | -4.16
17 | C5U A40C C54G G92A A121U C132U U146A | ≤ -4.2
18 | C5G A24G A26G A113G C116G | ≤ -4.2
19 | C5G U6G U7G C14G A28C A30C G50C C51G A89G C93G G94U C105U C118A G133A | ≤ -4.2
20 | C5U G11A A29U G70C G84A C96U | ≤ -4.2
21 | C5G C10G A28U U33G C79U | ≤ -4.2
22 | U6C C63U A138G | -4.08
23 | C5U G84A C95A | 0.351
24 | C5G A49U C57U C93G C103G U144C | ≤ -4.2

Row | Variant | polymerase ribozyme fitness (log ratio)
25 | C5U A21U | 1.4
26 | C5U C8G U9G U61G U77A G84A U146C | ≤ -4.2
27 | U6C C10A A24U A110G | ≤ -4.2
28 | C5U G50C C87U C103G A121G C123U C125G | ≤ -4.2
29 | C5G U55G G83U U101C | -2.49
30 | U6A G88C C116U | ≤ -4.2
31 | C5U G92A | -1.32
32 | U6C A39C A66G U90A C93A C99A G100C C103A C116G A147C | ≤ -4.2
33 | C5U A19G C57U G84U G117U A120U | -2.48
34 | C5G C79A C96A | ≤ -4.2
35 | C5G U53G C54A C96U U135A | -3.79
36 | C5G C38U G50A | -1.8
37 | U6A G42C A49C A52C C75U C85U A91U | ≤ -4.2
38 | U6C A24C G86U U104G C125U | ≤ -4.2
39 | U6A C69G G84U U145C | -1.67
40 | C5G C18A A23G C54G G67A C93G C99G | ≤ -4.2
41 | C5G A89G C96U U135G | ≤ -4.2
42 | C5G G46U G81U C87U G88A A98U C125U | ≤ -4.2
43 | C5G A41G C85U C95U A122U C132A | -3.5
44 | C5G G92A C96A | -3.11
45 | U6A A24U G81U C85G G140U | ≤ -4.2
46 | C5U C8U G58A A73G C114U A120G | -3.02
47 | U6A G25A A26C G50U A52G C76G C118G G136A | ≤ -4.2
48 | U6A C79A G86U A89C C103G | ≤ -4.2

Row | Variant | polymerase ribozyme fitness (log ratio)
49 | U6C A49C U55A U104C U146C | ≤ -4.2
50 | C5G U13A A23U A52C C87A C105U A107G | ≤ -4.2
51 | U6A U90G C95U U109G A137C | ≤ -4.2
52 | U6C A17U U33C C51G C57G G83U C95G A98G U127G | ≤ -4.2
53 | U6A C8A A12G C43U A64C G86C C87A | ≤ -4.2
54 | C5U A20C A29G A115C U130G C132U U146C | ≤ -4.2
55 | C5G U56A G84U U144A | -3.4
56 | C5U U82A C85A C99A U101G G140C | ≤ -4.2
57 | U6A A30C G58C A60U C76G A106U C149G | ≤ -4.2
58 | U6A C85U | -0.519
59 | C5G U7C A16C C27U C32G A49C U53G C125A A137U G143C | ≤ -4.2
60 | C5G U6C G50A | -2.74
61 | U6A A22C G50A U61G C79U C85A G143U A147C | ≤ -4.2
62 | U6A A26C A122C | -2.04
63 | U6C A37C C93U | -3.12
64 | U6A G58U U61A A66G U82C U139C G152A | ≤ -4.2
65 | U6A G86A C87G | ≤ -4.2
66 | U6A C38U U44A U82G C85U C95A U101G | ≤ -4.2
67 | C5G C14G A41C G48C G126A G140A | ≤ -4.2
68 | U6C A73U G84A G100U G124A C125G U145G | ≤ -4.2
69 | C5U A49C G81U C93G | ≤ -4.2
70 | C5G U13C A17C G83U U134C A137C | ≤ -4.2
71 | C5U A17C G50A U77A C87G A91C A106U U109G | ≤ -4.2
72 | C5G A91U | ≤ -4.2

Row | Variant | polymerase ribozyme fitness (log ratio)
73 | C5G A120C | -0.488
74 | C5G U6A C32G U77A C87G C114U | ≤ -4.2
75 | C5U A24G G94A C123U G140U | ≤ -4.2
76 | U6A C18G U56A A106G | -0.358
77 | C5U C85G U104C | -3.03
78 | C5G A29C A47C G50A G86A U90A A91U G143C | ≤ -4.2
79 | U6A C14U A91C A150U | ≤ -4.2
80 | C5U A19C A39G G80C C87U C105G U135A | ≤ -4.2
81 | U6C A89G C96U U135C G140U | ≤ -4.2
82 | C5G C96A G117A | -0.406
83 | C5U G50A C54A C76U G84U C95U C114U | ≤ -4.2
84 | C5G U9C A16C A28G A30U C32G C35A G59U G92U C105U | ≤ -4.2
85 | C5U A52C C76U C93A C116U C123G | -3.61
86 | C5G U101G | 0.0588
87 | C5G A37U A40U C95A U139A | ≤ -4.2
88 | U6A C69A G92U A98G U111C G152C | ≤ -4.2
89 | U6A A22G C125U | -0.424
90 | U6A U7G U31C G34A A41U | -3.68
91 | C5U G84A A150C | ≤ -4.2
92 | C5G C8U A24G G34A A41G G70C A107G G124U U151G | ≤ -4.2
93 | C5G U13C C18U G46U C108U A122G | ≤ -4.2
94 | C5G U45G G86U C93G A97G | -3.16
95 | U6C A21U U55A G58A G86A | -3.18
96 | U6A G11A U45A U53G C76U U90G C118U | ≤ -4.2

Row | Variant | polymerase ribozyme fitness (log ratio)
97 | U6A U61A C93A | ≤ -4.2
98 | C5U U15G A39C A66U C95U | -4.2
99 | U6A C38G G42C G86U C93U U127A | ≤ -4.2
100 | C5U U13A C14A U53A U55A C76A A120U G124C | ≤ -4.2
101 | C5U | 0.998
102 | C5U A23U C32U G74U G83A C114U G136U C149U | ≤ -4.2
103 | U6C G11A A37G A52G G86A G100A | ≤ -4.2
104 | C5G U55G C85U C99A | -2.86
105 | C5U A28C U56A U77C G94A | ≤ -4.2
106 | C5G C85U A142U | -1.45
107 | C5G G34A C38U C43U G83A | ≤ -4.2
108 | U6C G48A A106G | -3.13
109 | C5G C8U A28C U33A U44A C85U U90A U139C | ≤ -4.2
110 | U6A A12U U53A C114U | -3.59
111 | C5G C10U A49G U56A G74C C85U U90G C93U G100U A115C G141A | ≤ -4.2
112 | C5G C14G C96A | -2.31
113 | U6A C8G A60C G62A C85A C103A | ≤ -4.2
114 | C5G A41U G59C G84A | -2.99
115 | U6A C54U G58C C85A U134C | -1.4
116 | C5U A28U A40U C57U G83C A89G | ≤ -4.2
117 | U6A U7G C36U C85A U144A | ≤ -4.2
118 | U6A A23U A30U G46A A47C | ≤ -4.2
119 | C5G A21G U55A C57U A147C | -0.914
120 | C5U U13G A20C C27G G80A C87U U148G | ≤ -4.2

Row | Variant | polymerase ribozyme fitness (log ratio)
121 | C5G G50C | -3.2
122 | C5G G65A A66G A137C G141C | ≤ -4.2
123 | U6A C14A C32U G74A A138C | ≤ -4.2
124 | C5G C87A | ≤ -4.2
125 | C5G C87U | -0.787
126 | C5U C51U G84A A150G | -2.47
127 | C5U A64C G84A A122G G124U U144G U151A | ≤ -4.2
128 | C5U C54U U82A C95G A147U | -1.27
129 | U6A C51U A52U U56A G83U G84A C114U | ≤ -4.2
130 | C5G C103A G117A | -2.88
131 | C5U G46U C85G | -2.05
132 | C5G G83U A98U C105U | -1.03
133 | U6A A12G A17G A40G C96A A137G | -3.74
134 | C5U C54G | -0.591
135 | U6A C35A U104C | -3.88
136 | C5U C87U G94C | -2.15
137 | C5U A12U G84U | -1.92
138 | C5G C57U | -0.358
139 | U6A U56A U82G C103U | -1.06
140 | U6A A26C A98U G136U | -4.09
141 | U6A C27A C85G | ≤ -4.2
142 | U6A U44G A98U A107U | -1.58
143 | U6A G25U | -1.78
144 | C5G U13A A29G C51U G94C C114G G140C G141C U144A | ≤ -4.2

Row | Variant | polymerase ribozyme fitness (log ratio)
145 | C5G C38A A39C A60U A73G G94U U104A A138U | ≤ -4.2
146 | C5G U33C G50C C57U G71A A73U A91U | ≤ -4.2
147 | U6A U9G C35G A60G C69G G88C C96A | ≤ -4.2
148 | U6C C27U G50C A52G G58A C87U | ≤ -4.2
149 | C5G C14G G48C C57A A73C C87U C118U A121G C123U G140C | ≤ -4.2
150 | C5G U9G G86A | -4
151 | U6A A24C G48A C93U U127G U144A | ≤ -4.2
152 | C5G C132U U146G | -3.69
153 | U6A A37G G80A C87A U102G G152A | ≤ -4.2
154 | U6C G11C A16C G58C A142C | -3.7
155 | C5G A39U G59U G68A A98G A115G A137G G143U | ≤ -4.2
156 | U6C A21U U101A U104A U148A | ≤ -4.2
157 | C5U C8G A137U U145A A147C | ≤ -4.2
158 | U6A U7C G83A C125A | -3.64
159 | C5G G48C G62C A97U G141U | ≤ -4.2
160 | C5G A28G G48C G83C U104G G133U | ≤ -4.2
161 | C5G A73U G124A | -1.49
162 | U6A A52C G81U C85G | -3.49
163 | U6A C27U A41C U55A G62C G71C C85A G143U | ≤ -4.2
164 | U6A G34A C69U A73G U77A C79A C87A C96U C105A A107U G136A U139A | ≤ -4.2
165 | U6A A12C A16U A19U C75G G84C A97G A98U U102A G124U | ≤ -4.2
166 | C5U A16U A26U U44A A52G G92C | ≤ -4.2
167 | C5U A24U C32G U53G C123G A147G U151G | ≤ -4.2

Reference: the RNAGym collection of RNA variant scans (doi:10.1073/pnas.2313332121)
